{"source": "paper PMC12854727", "data": [{"target": "cleaved human TMPRSS2 ectodomain harboring the S441A residue substitution and a C379-T447C disulfide bond (UniProt O15393)", "assay": "BLI", "details": "100 nM TMPRSS2 S441A for 200 seconds followed by dissociation for 400 seconds; RBD on SA biosensors; value read at 200 s; parent: est. 0.53; read off a plot", "units": {"response": "nm"}, "values": [{"substance": "HKU1 isolate N1 (genotype A) RBD, wildtype, biotinylated (avi tag) (from UniProt Q5MQD0) E505A", "response": 0.36}, {"substance": "HKU1 isolate N1 (genotype A) RBD, wildtype, biotinylated (avi tag) (from UniProt Q5MQD0) H488A", "response": 0.18}, {"substance": "HKU1 isolate N1 (genotype A) RBD, wildtype, biotinylated (avi tag) (from UniProt Q5MQD0) L510A", "response": 0}, {"substance": "HKU1 isolate N1 (genotype A) RBD, wildtype, biotinylated (avi tag) (from UniProt Q5MQD0) R517A", "response": 0.022}, {"substance": "HKU1 isolate N1 (genotype A) RBD, wildtype, biotinylated (avi tag) (from UniProt Q5MQD0) V509A", "response": 0.1}, {"substance": "HKU1 isolate N1 (genotype A) RBD, wildtype, biotinylated (avi tag) (from UniProt Q5MQD0) W515A", "response": 0}, {"substance": "HKU1 isolate N1 (genotype A) RBD, wildtype, biotinylated (avi tag) (from UniProt Q5MQD0) Y528A", "response": 0.11}]}, {"target": "HKU1 isolate N1 (genotype A) RBD, wildtype, biotinylated (avi tag) (UniProt Q5MQD0)", "assay": "BLI", "details": "100 nM TMPRSS2; area under the binding response curve normalised to human WT TMPRSS2, not to the mouse parent; parent: est. 19; read off a plot", "units": {"response": "% WT"}, "values": [{"substance": "S441A House Mouse TMPRSS2 ectodomain (DS mutation, SUMO, N249 glycan) S412N", "response": 38}]}, {"target": "HKU1 isolate N1 (genotype A) RBD, wildtype, biotinylated (avi tag) (UniProt Q5MQD0)", "assay": "BLI", "details": "100 nM TMPRSS2; area under the binding response curve normalised to human WT TMPRSS2, not to the mouse parent; read off a plot", "units": {"response": "% WT"}, "values": [{"substance": "House Mouse TMPRSS2 ectodomain S441A", "response": 19}]}, {"target": "HKU1 isolate N1 (genotype A) RBD, wildtype, biotinylated (avi tag) (UniProt Q5MQD0)", "assay": "BLI", "details": "100 nM TMPRSS2; area under the binding response curve; Not activated: uncleaved S441A TMPRSS2; read off a plot", "units": {"percent of parent": "% WT"}, "values": [{"substance": "human TMPRSS2 ectodomain harboring S441, the DS mutation, SUMO and the N249 glycan (self-activating; wildtype of Figure 4C) (from UniProt O15393) S441A", "percent of parent": 1.4}]}, {"target": "HKU1 isolate N1 (genotype A) RBD, wildtype, biotinylated (avi tag) (UniProt Q5MQD0)", "assay": "BLI", "details": "100 nM TMPRSS2; area under the binding response curve; cleaved (activated by enterokinase); read off a plot", "units": {"percent of parent": "% WT"}, "values": [{"substance": "human TMPRSS2 ectodomain harboring S441, the DS mutation, SUMO and the N249 glycan (self-activating; wildtype of Figure 4C) (from UniProt O15393) S441A", "percent of parent": 100}]}, {"target": "HKU1 isolate N1 (genotype A) RBD, wildtype, biotinylated (avi tag) (UniProt Q5MQD0)", "assay": "BLI", "details": "100 nM TMPRSS2; area under the binding response curve; read off a plot", "units": {"percent of parent": "% WT"}, "values": [{"substance": "human TMPRSS2 ectodomain harboring S441, the DS mutation, SUMO and the N249 glycan (self-activating; wildtype of Figure 4C) (from UniProt O15393) A468P", "percent of parent": 95}, {"substance": "human TMPRSS2 ectodomain harboring S441, the DS mutation, SUMO and the N249 glycan (self-activating; wildtype of Figure 4C) (from UniProt O15393) D417N", "percent of parent": 15}, {"substance": "human TMPRSS2 ectodomain harboring S441, the DS mutation, SUMO and the N249 glycan (self-activating; wildtype of Figure 4C) (from UniProt O15393) K340D", "percent of parent": 57}, {"substance": "human TMPRSS2 ectodomain harboring S441, the DS mutation, SUMO and the N249 glycan (self-activating; wildtype of Figure 4C) (from UniProt O15393) L419A", "percent of parent": 4.1}, {"substance": "human TMPRSS2 ectodomain harboring S441, the DS mutation, SUMO and the N249 glycan (self-activating; wildtype of Figure 4C) (from UniProt O15393) L419M", "percent of parent": 51}, {"substance": "human TMPRSS2 ectodomain harboring S441, the DS mutation, SUMO and the N249 glycan (self-activating; wildtype of Figure 4C) (from UniProt O15393) R409K", "percent of parent": 81}, {"substance": "human TMPRSS2 ectodomain harboring S441, the DS mutation, SUMO and the N249 glycan (self-activating; wildtype of Figure 4C) (from UniProt O15393) R409T", "percent of parent": 79}, {"substance": "human TMPRSS2 ectodomain harboring S441, the DS mutation, SUMO and the N249 glycan (self-activating; wildtype of Figure 4C) (from UniProt O15393) R413K", "percent of parent": 77}, {"substance": "human TMPRSS2 ectodomain harboring S441, the DS mutation, SUMO and the N249 glycan (self-activating; wildtype of Figure 4C) (from UniProt O15393) R413V", "percent of parent": 85}, {"substance": "human TMPRSS2 ectodomain harboring S441, the DS mutation, SUMO and the N249 glycan (self-activating; wildtype of Figure 4C) (from UniProt O15393) R470K", "percent of parent": 1.6}, {"substance": "human TMPRSS2 ectodomain harboring S441, the DS mutation, SUMO and the N249 glycan (self-activating; wildtype of Figure 4C) (from UniProt O15393) S412N", "percent of parent": 110}, {"substance": "human TMPRSS2 ectodomain harboring S441, the DS mutation, SUMO and the N249 glycan (self-activating; wildtype of Figure 4C) (from UniProt O15393) S412N; Y469L", "percent of parent": 81}, {"substance": "human TMPRSS2 ectodomain harboring S441, the DS mutation, SUMO and the N249 glycan (self-activating; wildtype of Figure 4C) (from UniProt O15393) S463F", "percent of parent": 1.6}, {"substance": "human TMPRSS2 ectodomain harboring S441, the DS mutation, SUMO and the N249 glycan (self-activating; wildtype of Figure 4C) (from UniProt O15393) S463T", "percent of parent": 2}, {"substance": "human TMPRSS2 ectodomain harboring S441, the DS mutation, SUMO and the N249 glycan (self-activating; wildtype of Figure 4C) (from UniProt O15393) S463Y", "percent of parent": 1.5}, {"substance": "human TMPRSS2 ectodomain harboring S441, the DS mutation, SUMO and the N249 glycan (self-activating; wildtype of Figure 4C) (from UniProt O15393) T341S", "percent of parent": 85}, {"substance": "human TMPRSS2 ectodomain harboring S441, the DS mutation, SUMO and the N249 glycan (self-activating; wildtype of Figure 4C) (from UniProt O15393) V415I", "percent of parent": 71}, {"substance": "human TMPRSS2 ectodomain harboring S441, the DS mutation, SUMO and the N249 glycan (self-activating; wildtype of Figure 4C) (from UniProt O15393) Y414L", "percent of parent": 2.5}, {"substance": "human TMPRSS2 ectodomain harboring S441, the DS mutation, SUMO and the N249 glycan (self-activating; wildtype of Figure 4C) (from UniProt O15393) Y414R", "percent of parent": 3.9}, {"substance": "human TMPRSS2 ectodomain harboring S441, the DS mutation, SUMO and the N249 glycan (self-activating; wildtype of Figure 4C) (from UniProt O15393) Y414S", "percent of parent": 28}, {"substance": "human TMPRSS2 ectodomain harboring S441, the DS mutation, SUMO and the N249 glycan (self-activating; wildtype of Figure 4C) (from UniProt O15393) Y469L", "percent of parent": 130}, {"substance": "human TMPRSS2 ectodomain harboring S441, the DS mutation, SUMO and the N249 glycan (self-activating; wildtype of Figure 4C) (from UniProt O15393) Y469N", "percent of parent": 10}]}, {"target": "HKU1 isolate N1 (genotype A) RBD, wildtype, biotinylated (avi tag) (UniProt Q5MQD0)", "assay": "BLI", "details": "100 nM TMPRSS2 mutants for 200 seconds followed by dissociation for 400 seconds; RBD on SA biosensors; value read at 200 s; parent: est. 0.50; read off a plot", "units": {"response": "nm"}, "values": [{"substance": "human TMPRSS2 ectodomain with S441 and the C379-T447C disulfide bond (wildtype of Figure 2F) (from UniProt O15393) R470A", "response": 0.14}, {"substance": "human TMPRSS2 ectodomain with S441 and the C379-T447C disulfide bond (wildtype of Figure 2F) (from UniProt O15393) W461A", "response": 0}, {"substance": "human TMPRSS2 ectodomain with S441 and the C379-T447C disulfide bond (wildtype of Figure 2F) (from UniProt O15393) Y414A", "response": 0.1}, {"substance": "human TMPRSS2 ectodomain with S441 and the C379-T447C disulfide bond (wildtype of Figure 2F) (from UniProt O15393) Y469A", "response": 0.36}]}, {"target": "human TMPRSS2 ectodomain harboring S441, the DS mutation, SUMO and the N249 glycan (self-activating; wildtype of Figure 4C) (human) (UniProt O15393)", "assay": "enzyme inhibition kinetics (peptidase assay, competitive inhibition fit); 5 nM TMPRSS2 with serial dilutions of Boc-QAR-AMC substrate in the presence of 215, 72 or 24 nM HKU1 RBD, 22 °C; TMPRSS2 incubated 2 minutes with the RBD before substrate", "details": "not given", "units": {"Ki": "nM"}, "values": [{"substance": "HKU1 isolate N1 (genotype A) RBD, wildtype, without avi tag (from UniProt Q5MQD0 320-614) (domain or fragment)", "Ki": 38}]}]}
